Source: patent US20250090699A1, “FAP TARGETING CYCLIC PEPTIDES AND CONJUGATES THEREOF” (Novartis AG, priority 2023, published 2025)
Starred links: 1 amine or outer side, 2 acyl side, 3 side chain; linkers in the order of their positions; H or OH if unused. Non-standard residues stand in square brackets, D forms with d. F4(amMeBAlaDOTALu) = lutetium complex of (S)-2,2',2''-(10-(2-((3-((4-(2-amino-2-carboxyethyl)benzyl)amino)-3-oxopropyl)(methyl)amino)-2-oxoethyl)-1,4,7,10-tetraazacyclododecane-1,4,7-triyl)triacetic acid (Phe with 4-aminomethyl-N-methyl-βAla, CN(CCC(=O)NCc1ccc(C[C@H](N[*:1])C(=O)[*:2])cc1)C(=O)CN1CCN(CC(=O)[O-])CCN(CC(=O)[O-])CCN(CC(=O)[O-])CC1.[Lu+3]; F4(amBAlaDOTALu) = lutetium complex of (S)-2,2',2''-(10-(2-((3-((4-(2-amino-2-carboxyethyl)benzyl)amino)-3-oxopropyl)amino)-2-oxoethyl)-1,4,7,10-tetraazacyclododecane-1,4,7-triyl)triacetic acid (Phe with 4-aminomethyl-βAla-DOTA-Lu), O=C([O-])CN1CCN(CC(=O)[O-])CCN(CC(=O)NCCC(=O)NCc2ccc(C[C@H](N[*:1])C(=O)[*:2])cc2)CCN(CC(=O)[O-])CC1.[Lu+3]; F4(amGlyDOTALu) = lutetium complex of (S)-2,2',2''-(10-(2-((2-((4-(2-amino-2-carboxyethyl)benzyl)amino)-2-oxoethyl)amino)-2-oxoethyl)-1,4,7,10-tetraazacyclododecane-1,4,7-triyl)triacetic acid (Phe with 4-aminomethyl-Gly-DOTA-Lu), O=C([O-])CN1CCN(CC(=O)[O-])CCN(CC(=O)NCC(=O)NCc2ccc(C[C@H](N[*:1])C(=O)[*:2])cc2)CCN(CC(=O)[O-])CC1.[Lu+3]; F(4OEtNHDOTA-Lu) = lutetium complex of (S)-2,2',2''-(10-(2-((2-(4-(2-amino-2-carboxyethyl)phenoxy)ethyl)amino)-2-oxoethyl)-1,4,7,10-tetraazacyclododecane-1,4,7-triyl)triacetic acid (Phe with 4-O-ethylamino-DOTA-Lu), O=C([O-])CN1CCN(CC(=O)[O-])CCN(CC(=O)NCCOc2ccc(C[C@H](N[*:1])C(=O)[*:2])cc2)CCN(CC(=O)[O-])CC1.[Lu+3]; F(4OEtNHDOTA-Ga) = gallium complex of (S)-2,2',2''-(10-(2-((2-(4-(2-amino-2-carboxyethyl)phenoxy)ethyl)amino)-2-oxoethyl)-1,4,7,10-tetraazacyclododecane-1,4,7-triyl)triacetic acid (Phe with 4-O-ethylamino-DOTA-Ga), O=C([O-])CN1CCN(CC(=O)[O-])CCN(CC(=O)NCCOc2ccc(C[C@H](N[*:1])C(=O)[*:2])cc2)CCN(CC(=O)[O-])CC1.[Ga+3]; K(COpipzaa) = N6-(4-(carboxymethyl)piperazine-1-carbonyl)-L-lysine, O=C(NCCCC[C@H](N[*:1])C(=O)[*:2])N1CCN(CC(=O)[*:3])CC1; F4(METRIAZOLYLMENHDOTA-Lu) = Phe with 4-(methyl-triazolyl-methyl-NH-DOTA), Lu complex; 3Pal(6-NH2) = Nc1ccc(C[C@H](N)C(=O)O)cn1; NMeF = CN[C@@H](Cc1ccccc1)C(=O)O; Ahp(2) = CCCCC[C@H](N)C(=O)O

Assays:
[1] = target: T1, human FAP (Homo sapiens, UniProt Q12884); assay: Enzymatic FAP competition assay (Z-Gly-Pro-AMC fluorescence), human FAP; format: biochemical; settings: read-out: h. FAP, Enz., IC50
T1 construct: the biotinylated His, Avi tag, human FAP (26-760, FAP-H82Q6); His; Avi tag (biotinylated); purchased AcroBiosystems FAP-H82Q6
T1 sequence (Q12884 26-760): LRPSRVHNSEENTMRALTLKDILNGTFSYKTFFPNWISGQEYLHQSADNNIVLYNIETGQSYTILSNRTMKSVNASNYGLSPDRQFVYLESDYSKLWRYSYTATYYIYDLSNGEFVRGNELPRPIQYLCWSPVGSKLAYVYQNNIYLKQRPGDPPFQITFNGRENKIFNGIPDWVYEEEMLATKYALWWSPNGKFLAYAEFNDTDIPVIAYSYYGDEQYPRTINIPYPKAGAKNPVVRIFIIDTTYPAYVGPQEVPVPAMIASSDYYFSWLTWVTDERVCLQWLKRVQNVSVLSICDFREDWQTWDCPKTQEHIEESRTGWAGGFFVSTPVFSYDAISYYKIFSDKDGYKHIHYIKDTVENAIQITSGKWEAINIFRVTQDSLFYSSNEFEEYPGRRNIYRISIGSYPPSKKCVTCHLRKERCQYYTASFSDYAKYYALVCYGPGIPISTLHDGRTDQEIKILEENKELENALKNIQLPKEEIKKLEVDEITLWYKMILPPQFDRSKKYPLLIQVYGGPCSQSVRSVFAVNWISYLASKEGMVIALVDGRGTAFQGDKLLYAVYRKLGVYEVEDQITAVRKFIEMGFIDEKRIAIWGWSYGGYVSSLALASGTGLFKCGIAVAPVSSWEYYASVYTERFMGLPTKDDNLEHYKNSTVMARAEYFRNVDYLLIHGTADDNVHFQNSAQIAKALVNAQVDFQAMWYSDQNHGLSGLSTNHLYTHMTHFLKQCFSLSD
Procedure, shortened: (§1)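 IC50 values come from curve fitting of duplicate % inhibition data on AMC fluorescence (ex 380, em 460 nm) after 4 h at 22-24° C with 50 μM Z-Gly-Pro-AMC. Beforehand, peptides up to 1 μM (14 levels) sat 24 h with 0.01 nM human (26-760) or mouse (26-761) tagged FAP in phosphate buffer pH 7.5, NaCl, Tween20, 1% DMSO.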

[2] = target: T2, mouse FAP (Mus musculus, UniProt P97321); assay: Surface plasmon resonance (SPR) for peptide affinity, mouse FAP; format: binding
T2 construct: biotinylated His, Avi tag, mouse FAP (26-761, FAP-M82Q5); His; Avi tag (biotinylated); purchased AcroBiosystems FAP-M82Q5
T2 sequence (P97321 26-761): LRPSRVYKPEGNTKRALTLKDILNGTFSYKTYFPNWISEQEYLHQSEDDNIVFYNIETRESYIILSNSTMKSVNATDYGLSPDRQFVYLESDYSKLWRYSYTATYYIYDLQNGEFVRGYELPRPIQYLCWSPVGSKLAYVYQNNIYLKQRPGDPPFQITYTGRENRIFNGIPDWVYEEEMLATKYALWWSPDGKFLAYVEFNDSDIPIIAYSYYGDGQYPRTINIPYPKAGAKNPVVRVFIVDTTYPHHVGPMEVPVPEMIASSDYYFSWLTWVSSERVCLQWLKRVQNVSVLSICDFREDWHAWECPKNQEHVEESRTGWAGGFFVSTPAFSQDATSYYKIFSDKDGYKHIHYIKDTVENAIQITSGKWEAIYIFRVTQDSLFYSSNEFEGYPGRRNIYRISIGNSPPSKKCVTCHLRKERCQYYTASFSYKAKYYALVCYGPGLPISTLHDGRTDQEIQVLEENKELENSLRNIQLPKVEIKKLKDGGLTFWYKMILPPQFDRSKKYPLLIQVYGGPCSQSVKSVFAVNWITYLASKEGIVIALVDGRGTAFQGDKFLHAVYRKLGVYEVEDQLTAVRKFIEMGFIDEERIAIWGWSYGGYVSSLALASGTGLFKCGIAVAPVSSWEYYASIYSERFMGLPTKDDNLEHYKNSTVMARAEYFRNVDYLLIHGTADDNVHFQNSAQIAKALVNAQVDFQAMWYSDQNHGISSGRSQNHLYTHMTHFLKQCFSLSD
Procedure, shortened: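 KD values come from a 1:1 kinetic fit of single-cycle SPR data: 8 peptide concentrations, 25 °C, 30 μL/min, HEPES-buffered saline pH 7.6 with 2% DMSO. Targets were His/Avi-tagged human (26-760) or mouse (26-761) FAP, amine-coupled to CM5 or held on a CAPture chip.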

[3] = target: T2, mouse FAP; assay: Enzymatic FAP competition assay (Z-Gly-Pro-AMC fluorescence), mouse FAP; format: biochemical; settings: read-out: m. FAP, Enz., IC50
Procedure, shortened: as §1

| Substance | IC50 [1] [nM] | Kd [2] [nM] | IC50 [3] [nM] |
| --- | --- | --- | --- |
| Gly-Gly-NMePhe-F4(amBAlaDOTALu)-Ahp-Trp-Gly-Tyr-Asp-D-Pro (cyclo(GG[NMeF][F4(amBAlaDOTALu)][Ahp(2)]WGYD[dP]); also: Lu complex) [Example C10] | 0.01 | 0.033 | 0.024 |
| Gly-Gly-NMePhe-F4(amGlyDOTALu)-Ahp-Trp-Gly-Tyr-Asp-D-Pro (cyclo(GG[NMeF][F4(amGlyDOTALu)][Ahp(2)]WGYD[dP]); also: Lu complex) [Example C9] | 0.01 | 0.032 | 0.024 |
| Gly-Gly-NMePhe-F(4OEtNHDOTA-Ga)-Ahp-Trp-Gly-K(COpipzaa)-Asp-D-Pro (cyclo(GG[NMeF][F(4OEtNHDOTA-Ga)][Ahp(2)]WG[K(COpipzaa)]D[dP]); also: Ga complex of DOTA) [Example C50] | 0.046 | < 0.02 | 0.052 |
| Gly-Gly-NMePhe-F(4OEtNHDOTA-Ga)-Ahp-Trp-Gly-Tyr-Asp-D-Pro (cyclo(GG[NMeF][F(4OEtNHDOTA-Ga)][Ahp(2)]WGYD[dP]); also: Ga complex of DOTA) [Example C51] | 0.03 | 0.026 | 0.058 |
| Gly-Gly-NMePhe-F(4OEtNHDOTA-Lu)-Ahp-Trp-Gly-3PyA(6NH2)-Asp-D-Pro (cyclo(GG[NMeF][F(4OEtNHDOTA-Lu)][Ahp(2)]WG[3Pal(6-NH2)]D[dP]); also: Lu complex of DOTA) [Example C24] | 0.013 | 0.035 | 0.059 |
| Gly-Gly-NMePhe-F(4OEtNHDOTA-Lu)-Ahp-Trp-Gly-K(COpipzaa)-Asp-D-Pro (cyclo(GG[NMeF][F(4OEtNHDOTA-Lu)][Ahp(2)]WG[K(COpipzaa)]D[dP]); also: Lu complex of DOTA) [Example C27] | 0.026 | 0.102 | 0.072 |

Substances with a lower IC50 [1], results first:

| IC50 [1] [nM] | Kd [2] [nM] | IC50 [3] [nM] | Substance |
| --- | --- | --- | --- |
| 0.009 | 0.048 | 0.024 | Gly-Gly-NMePhe-F4(METRIAZOLYLMENHDOTA-Lu)-Ahp-Trp-Gly-Tyr-Asp-D-Pro (cyclo(GG[NMeF][F4(METRIAZOLYLMENHDOTA-Lu)][Ahp(2)]WGYD[dP]); also: Lu complex) [Example C14] |
| 0.009 | 0.028 | 0.024 | Gly-Gly-NMePhe-F4(amMeBAlaDOTALu)-Ahp-Trp-Gly-Tyr-Asp-D-Pro (cyclo(GG[NMeF][F4(amMeBAlaDOTALu)][Ahp(2)]WGYD[dP]); also: Lu complex) [Example C11] |
| 0.007 | < 0.041 | 0.019 | Gly-Gly-NMe3PyA-F(4amPEG2NHDOTA-Lu)-hS(Pr)-W7N-Gly-K(COpipzaa)-Asp-D-Pro [Example C3] |
